Results taken from paper PMC10526831, “SUPPRESSOR OF MAX2 LIKE 6, 7, and 8 Interact with DDB1 BINDING WD REPEAT DOMAIN HYPERSENSITIVE TO ABA DEFICIENT 1 to Regulate the Drought Tolerance and Target SUCROSE NONFERMENTING 1 RELATED PROTEIN K”.

Tests used:
Experiment in all cases: EMSA; 25x unlabeled probe as competitor; 1 ug protein, 20 uL reaction, room temperature 30 min; 6% native PAGE in 0.5x TBE; binding buffer, salt and pH not given
Conditions in all cases: protein: recombinant; tags: N-terminal GST (pGEX-6P-1); label: biotin; blunt
[1] = molecular target: T1, GST-SMXL6 (Arabidopsis thaliana, UniProt Q9LML2 1-979)
T1 sequence: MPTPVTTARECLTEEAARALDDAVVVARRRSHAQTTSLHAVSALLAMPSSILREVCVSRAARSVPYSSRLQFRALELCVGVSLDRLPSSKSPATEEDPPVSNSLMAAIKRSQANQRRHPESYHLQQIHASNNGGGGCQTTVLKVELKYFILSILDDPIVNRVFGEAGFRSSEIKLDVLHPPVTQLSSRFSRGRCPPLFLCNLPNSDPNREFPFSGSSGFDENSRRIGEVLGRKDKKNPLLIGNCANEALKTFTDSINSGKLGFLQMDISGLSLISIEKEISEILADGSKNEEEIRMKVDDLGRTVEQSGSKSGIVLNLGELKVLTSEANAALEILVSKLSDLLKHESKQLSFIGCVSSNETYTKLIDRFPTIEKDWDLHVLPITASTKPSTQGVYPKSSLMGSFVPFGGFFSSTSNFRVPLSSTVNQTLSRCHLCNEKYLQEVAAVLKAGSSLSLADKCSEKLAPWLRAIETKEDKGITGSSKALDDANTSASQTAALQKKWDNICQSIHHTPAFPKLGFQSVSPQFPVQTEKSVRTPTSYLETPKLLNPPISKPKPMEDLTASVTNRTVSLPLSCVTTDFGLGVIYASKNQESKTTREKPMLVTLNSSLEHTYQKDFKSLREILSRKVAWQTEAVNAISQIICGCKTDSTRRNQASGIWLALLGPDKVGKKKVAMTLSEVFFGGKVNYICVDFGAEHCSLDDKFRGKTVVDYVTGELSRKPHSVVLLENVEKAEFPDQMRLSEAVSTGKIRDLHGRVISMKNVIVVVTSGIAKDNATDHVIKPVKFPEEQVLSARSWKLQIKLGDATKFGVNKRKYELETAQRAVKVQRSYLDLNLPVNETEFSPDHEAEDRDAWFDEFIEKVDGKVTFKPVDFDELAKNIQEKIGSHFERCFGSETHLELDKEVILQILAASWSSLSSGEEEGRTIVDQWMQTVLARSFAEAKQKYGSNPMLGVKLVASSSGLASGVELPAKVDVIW

[2] = molecular target: T2, GST-SMXL7 (Arabidopsis thaliana, UniProt O80875 1-1002)
T2 sequence: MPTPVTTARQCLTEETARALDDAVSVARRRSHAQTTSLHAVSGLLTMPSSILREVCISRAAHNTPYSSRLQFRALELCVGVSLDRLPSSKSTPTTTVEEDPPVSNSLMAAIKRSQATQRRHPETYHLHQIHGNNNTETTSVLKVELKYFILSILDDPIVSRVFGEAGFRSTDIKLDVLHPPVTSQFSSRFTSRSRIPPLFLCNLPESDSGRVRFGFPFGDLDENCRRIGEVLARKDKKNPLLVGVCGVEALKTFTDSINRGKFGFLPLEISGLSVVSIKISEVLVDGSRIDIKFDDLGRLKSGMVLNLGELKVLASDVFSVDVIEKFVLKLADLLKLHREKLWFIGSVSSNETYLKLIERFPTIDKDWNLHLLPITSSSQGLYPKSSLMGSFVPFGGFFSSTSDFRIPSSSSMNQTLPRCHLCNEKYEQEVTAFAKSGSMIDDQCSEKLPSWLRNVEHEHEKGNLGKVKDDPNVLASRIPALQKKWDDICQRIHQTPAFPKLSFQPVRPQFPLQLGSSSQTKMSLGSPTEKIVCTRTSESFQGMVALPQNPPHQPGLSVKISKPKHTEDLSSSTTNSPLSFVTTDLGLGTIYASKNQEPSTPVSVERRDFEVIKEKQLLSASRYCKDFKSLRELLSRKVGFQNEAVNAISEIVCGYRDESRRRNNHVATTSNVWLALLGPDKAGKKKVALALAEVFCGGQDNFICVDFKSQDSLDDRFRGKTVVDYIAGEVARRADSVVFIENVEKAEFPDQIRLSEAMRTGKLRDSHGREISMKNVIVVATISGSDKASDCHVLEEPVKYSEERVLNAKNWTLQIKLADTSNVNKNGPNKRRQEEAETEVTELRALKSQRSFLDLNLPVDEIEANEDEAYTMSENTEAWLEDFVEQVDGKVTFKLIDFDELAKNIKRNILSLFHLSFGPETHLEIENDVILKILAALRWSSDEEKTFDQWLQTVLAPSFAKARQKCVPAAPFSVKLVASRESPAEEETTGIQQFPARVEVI

[3] = molecular target: T3, GST-SMXL8 (Arabidopsis thaliana, UniProt F4IGZ2 1-910)
T3 sequence: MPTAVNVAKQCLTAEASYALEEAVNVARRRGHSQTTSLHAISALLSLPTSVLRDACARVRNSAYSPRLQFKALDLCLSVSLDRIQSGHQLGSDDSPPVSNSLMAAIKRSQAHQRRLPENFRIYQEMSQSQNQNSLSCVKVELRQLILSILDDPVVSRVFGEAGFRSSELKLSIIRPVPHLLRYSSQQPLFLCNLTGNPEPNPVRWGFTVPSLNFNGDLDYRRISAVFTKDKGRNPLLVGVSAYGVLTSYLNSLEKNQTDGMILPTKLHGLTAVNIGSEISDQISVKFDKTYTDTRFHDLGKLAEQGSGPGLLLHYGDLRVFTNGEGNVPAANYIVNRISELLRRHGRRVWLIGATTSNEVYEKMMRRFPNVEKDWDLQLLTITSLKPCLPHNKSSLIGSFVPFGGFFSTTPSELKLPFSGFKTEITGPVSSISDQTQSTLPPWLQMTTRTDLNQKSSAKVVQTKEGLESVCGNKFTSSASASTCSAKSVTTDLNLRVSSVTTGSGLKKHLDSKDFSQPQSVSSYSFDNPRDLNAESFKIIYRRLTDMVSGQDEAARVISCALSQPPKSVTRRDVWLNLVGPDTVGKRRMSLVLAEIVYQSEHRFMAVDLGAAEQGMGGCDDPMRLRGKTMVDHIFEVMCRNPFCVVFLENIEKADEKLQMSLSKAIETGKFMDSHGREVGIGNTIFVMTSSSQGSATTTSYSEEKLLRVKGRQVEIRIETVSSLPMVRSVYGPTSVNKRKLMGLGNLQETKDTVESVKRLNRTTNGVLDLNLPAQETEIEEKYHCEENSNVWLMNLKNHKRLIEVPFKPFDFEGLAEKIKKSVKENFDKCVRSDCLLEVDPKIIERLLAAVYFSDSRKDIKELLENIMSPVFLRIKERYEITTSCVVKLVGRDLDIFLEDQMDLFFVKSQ

B1: SnRK2.3 promoter p2.3-3-1-2-a (dsDNA)
DNA 1: CTTGGGGCAACCAATTATTGCCTTTTTTCTTCCTCTCTTTCCTTATTCGTT
DNA 2: AACGAATAAGGAAAGAGAGGAAGAAAAAAGGCAATAATTGGTTGCCCCAAG
binding result [1]: binds | binding result [2]: binds | binding result [3]: binds

B2: SnRK2.6 promoter p2.6-3-1-1-a (dsDNA)
DNA 1: GACATTTGTGGTAACTTGTTTTTCTTTTATTTTCCGTTTTTAAATGCGGAAACCCTT
DNA 2: AAGGGTTTCCGCATTTAAAAACGGAAAATAAAAGAAAAACAAGTTACCACAAATGTC
binding result [1]: binds | binding result [3]: binds
